The text below walks through data of US20120208867, “HMGB1 BINDING NUCLEIC ACID MOLECULE AND APPLICATIONS THEREOF” (published 2012).

Holding throughout (conditions): tags: N-terminal His-tag
Data set [1] deals with T1, His-tagged HMGB1 (UniProt P09429 P09429:1-215). Kind of data set: SPR; 160 nM protein. The method, then:
(§1) The ability of each of the aforementioned RNA aptamers to bind to HMGB1 in which His-tag was added to the N-terminus (His-tag-added HMGB1) was examined. For the analysis of the aforementioned binding ability, a BIACORE (registered trademark) X (manufactured by GE Healthcare) was used according to its instruction manual.
(§2) First, a sensor chip (trade name: Sensor Chip SA, manufactured by GE Heathcare) specially made for a BIACORE was set on the aforementioned BLACORE (registered trademark) X. Biotinylate deoxythymidine (5 μmol/L) was injected into the flow cell 2 of the aforementioned sensor chip using a running buffer and subjected to binding until the signal intensity (RU: resonance unit) reached about 1000 RU. For the aforementioned biotinylated deoxythymidine, 20-base-long deoxythymidine in which the 5′ end was biotinylated was used. Then, 10 μg/mL of an RNA aptamer was injected at a flow rate of 20 μL/min for 1 min into the aforementioned flow cells 1 and 2 of the aforementioned chip using a running buffer and subjected to binding until the signal intensity reached about 1000 RU. Next, […] for 30 sec using the aforementioned running buffer, and under the same conditions the aforementioned running buffer was allowed to flow continuously for washing. Simultaneously with the injection of the aforementioned His-tag-added HMGB1 and washing with the aforementioned running buffer, signal intensity was measured. The aforementioned running buffer was composed of 20 mmol/L of HEPES, 500 mmol/L of NaCl, 0.1 mmol/L of MgCl₂, and 0.1% Triton X-100 (registered trademark), with the pH thereof being 7.2. As a blocking agent for suppressing nonspecific binding, tRNA was used in a concentration of 1 mg/mL. In a comparative example, signal intensity was measured in the same manner except that the aforementioned comparative example RNA was used in place of the aforementioned example RNA aptamers.
A general note: In SPR one partner is held on a chip, and binding of the other changes the refractive index at the surface.

The target in data set [2] is T1, His-tagged HMGB1. Kind of data set: SPR; 150 nM protein. How it is done:
as §1, §2

Data set [3] concerns the target T1, His-tagged HMGB1. Nature of the data set: SPR; 200 nM protein, 150 mM NaCl; above unmodified 40N. How it is done:
First, a sensor chip (trade name: Sensor Chip SA, manufactured by GE Heathcare) specially made for a BIACORE was set on the aforementioned BLACORE (registered trademark) X. Biotinylate deoxythymidine (5 μmol/L) was injected into the flow cell 2 of the aforementioned sensor chip using a running buffer and subjected to binding until the signal intensity (RU: resonance unit) reached about 1000 RU. For the aforementioned biotinylated deoxythymidine, 20-base-long deoxythymidine in which the 5′ end was biotinylated was used. Then, 10 μg/mL of an RNA aptamer was injected at a flow rate of 20 μL/min for 1 min into the aforementioned flow cells 1 and 2 of the aforementioned chip using a running buffer and subjected to binding until the signal intensity reached about 1000 RU. Next, 675 nmol/L of the aforementioned His-tag-added HMGB1 was injected at a flow rate of 20 μL/min for 30 sec using the aforementioned running buffer, and under the same conditions the aforementioned running buffer was allowed to flow continuously for washing. Simultaneously with the injection of the aforementioned His-tag-added HMGB1 and washing with the aforementioned running buffer, signal intensity was measured. The aforementioned running buffer was composed of 20 mmol/L of HEPES, 500 mmol/L of NaCl, 0.1 mmol/L of MgCl₂, and 0.1% Triton X-100 (registered trademark), with the pH thereof being 7.2. As a blocking agent for suppressing nonspecific binding, tRNA was used in a concentration of 1 mg/mL. In a comparative example, signal intensity was measured in the same manner except that the aforementioned comparative example RNA was used in place of the aforementioned example RNA aptamers.
An analysis of ability to bind to the aforementioned His-tag-added HMGB1 (manufactured by Sigma) was carried out in the same manner as in (2) above of the aforementioned Example 1 except that the aforementioned fluorinated RNA aptamers were used, the concentration of the aforementioned His-tag-added HMGB1 was 200 nmol/L, the concentration of NaCl in the aforementioned running buffer was 150 mmol/L, and the injection time of the aforementioned His-tag-added HMGB1 was 60 seconds. Also, an analysis was carried out in the same manner on unmodified R8c6_{—}1 that was not fluorinated.

T1 sequence (P09429 whole entry, one chain of several): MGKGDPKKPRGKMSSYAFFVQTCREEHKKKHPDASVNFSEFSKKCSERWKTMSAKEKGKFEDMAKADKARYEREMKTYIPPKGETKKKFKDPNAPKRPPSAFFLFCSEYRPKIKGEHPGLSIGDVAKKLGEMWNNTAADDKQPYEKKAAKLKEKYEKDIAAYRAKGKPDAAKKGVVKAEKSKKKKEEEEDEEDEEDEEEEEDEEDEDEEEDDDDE

B1: R8c6_1-25-S6A (ssRNA)
RNA: GGGUAAGCACGUAGCACCAGUGUGCCUGGACGUGCAGU
As for B1, in data set [1], the binding result is “binds”.

B2: R8c6_1-26-S6 (ssRNA)
RNA: GGGAAGACACGUAGCACCAGUGUGCCUGGACGUGCAGU
For B2, the binding result in data set [1] is on record as “binds”.

B3: 2'F-R8c6_1-26-S6 (ssRNA)
RNA: GGGAAGACACGUAGCACCAGUGUGCCUGGACGUGCAGU
modifications: 2'-F on all C and U
Take B3: the binding result in data set [2] is on record as “binds”.

B4: 2'F-R8c6_1-25-S6A (ssRNA)
RNA: GGGUAAGCACGUAGCACCAGUGUGCCUGGACGUGCAGU
modifications: 2'-F on all C and U
On to B4, for which, in data set [2], the binding result is “binds”.

B5: R8c6_1-21-S8 (ssRNA)
RNA: GGGACAGUAAGACACGUAGCACCAGUGCCUGGACGUGCAGU
As for B5, the binding result in data set [2] was “binds”.

B6: R8c6_1-23-S6 (ssRNA)
RNA: GGGAGUAAGACACGUAGCACCAGUGUGCCUGGACGUGCAGU
For the molecule B6, the binding result in data set [2] is given as “binds”.

B7: 2'F-R8c6_1-23-S6 (ssRNA)
RNA: GGGAGUAAGACACGUAGCACCAGUGUGCCUGGACGUGCAGU
modifications: 2'-F on all C and U
Turning to B7, the binding result in data set [2] is reported as “binds”.

B8: R8c6_1-22-S6 (ssRNA)
RNA: GGGCAGUAAGACACGUAGCACCAGUGUGCCUGGACGUGCAGU
For B8, the binding result in data set [2] was “binds”.

B9: 2'F-R8c6_1-22-S6 (ssRNA)
RNA: GGGCAGUAAGACACGUAGCACCAGUGUGCCUGGACGUGCAGU
modifications: 2'-F on all C and U
B9: the binding result in data set [2] is “binds”.

B10: R8c6_1-25-S8 (ssRNA)
RNA: GGGUAAGACACGUAGCACCAGUGCCUGGACGUGCAGU
B10: in data set [1], the binding result is recorded as “binds”.

B11: R8c6_1-25-S8CA (ssRNA)
RNA: GGGUAAGACACGUAGAACCAGUGACUGGAAGUGCAGU
Regarding B11, the binding result in data set [2] is “binds”.

B12: 2'F-R8c6_1-25-S8 (ssRNA)
RNA: GGGUAAGACACGUAGCACCAGUGCCUGGACGUGCAGU
modifications: 2'-F on all C and U
With B12, in data set [2], the binding result is on record as “binds”.

B13: 2'F-R8c6_1-25-S8CA (ssRNA)
RNA: GGGUAAGACACGUAGAACCAGUGACUGGAAGUGCAGU
modifications: 2'-F on all C and U
Take B13: the binding result in data set [2] is given as “binds”.

B14: R8c6_1-25-S6C2 (ssRNA)
RNA: GGGUAAGACACGUAGCACCAGUGUGCCUGGAGUGCAGU
For the molecule B14, the binding result in data set [1] is recorded as “binds”.

B15: 2'F-R8c6_1-25-S6C2 (ssRNA)
RNA: GGGUAAGACACGUAGCACCAGUGUGCCUGGAGUGCAGU
modifications: 2'-F on all C and U
For the molecule B15, in data set [2], the binding result was “binds”.

B16: R8c6_1-24-S6 (ssRNA)
RNA: GGGGUAAGACACGUAGCACCAGUGUGCCUGGACGUGCAGU
For B16, the binding result in data set [2] is “binds”.

B17: 2'F-R8c6_1-24-S6 (ssRNA)
RNA: GGGGUAAGACACGUAGCACCAGUGUGCCUGGACGUGCAGU
modifications: 2'-F on all C and U
For B17, the binding result in data set [2] is recorded as “binds”.

B18: R8c6_1-25-S6C (ssRNA)
RNA: GGGUAAGACACGUAGACCAGUGUGCCUGGACGUGCAGU
B18: the binding result in data set [1] is on record as “binds”.

B19: 2'F-R8c6_1-25-S6C (ssRNA)
RNA: GGGUAAGACACGUAGACCAGUGUGCCUGGACGUGCAGU
modifications: 2'-F on all C and U
For B19, the binding result in data set [2] is given as “binds”.

B20: R8c6_1-25-S6 (ssRNA)
RNA: GGGUAAGACACGUAGCACCAGUGUGCCUGGACGUGCAGU
For B20, the binding result in data set [1] was “binds”.

B21: 2'F-R8c6_1-25-S6 (ssRNA)
RNA: GGGUAAGACACGUAGCACCAGUGUGCCUGGACGUGCAGU
modifications: 2'-F on all C and U
As to B21, in data set [2], the binding result was “binds”.

B22: R8c6_1-23-S8 (ssRNA)
RNA: GGGAGUAAGACACGUAGCACCAGUGCCUGGACGUGCAGU
As for B22, in data set [2], the binding result was “binds”.

B23: 2'F-R8c6_1-23-S8 (ssRNA)
RNA: GGGAGUAAGACACGUAGCACCAGUGCCUGGACGUGCAGU
modifications: 2'-F on all C and U
For the molecule B23, the binding result in data set [2] is “binds”.

B24: R8c6_1-25-S6A3 (ssRNA)
RNA: GGGUAAGACACGUAGCACCAGUGUGCCUGGACGUGCGU
On to B24, for which the binding result in data set [1] was “binds”.

B25: 2'F-CU-#80 (ssRNA)
RNA: GGGACGCUCACGUACGCUCACAUCUGAAUUUAAGCCACGUAGAACCAGGCCCUCCACGCGUCAGUGCCUGGACGUGCAGU
modifications: 2'-F on all C and U
Turning to B25, in data set [3], the binding result is “binds”.

B26: R8c6_1-22-S8 (ssRNA)
RNA: GGGCAGUAAGACACGUAGCACCAGUGCCUGGACGUGCAGU
With B26, the binding result in data set [2] is “binds”.

B27: 2'F-R8c6_1-22-S8 (ssRNA)
RNA: GGGCAGUAAGACACGUAGCACCAGUGCCUGGACGUGCAGU
modifications: 2'-F on all C and U
Take B27: the binding result in data set [2] is recorded as “binds”.

B28: 2'F-CU-#06 (ssRNA)
RNA: GGGACGCUCACGUACGCUCAUACACUGCACGCUCCGCUUUGAACAUCAAUGGAGGCCCUGUCAGUGCCUGGACGUGCAGU
modifications: 2'-F on all C and U
As for B28, the binding result in data set [3] is reported as “binds”.

B29: 2'F-U-#06 (ssRNA)
RNA: GGGACGCUCACGUACGCUCAUACACUGCACGCUCCGCUUUGAACAUCAAUGGAGGCCCUGUCAGUGCCUGGACGUGCAGU
modifications: 2'-F on all U
Turning to B29, the binding result in data set [3] was “binds”.

B30: 2'F-C-#06 (ssRNA)
RNA: GGGACGCUCACGUACGCUCAUACACUGCACGCUCCGCUUUGAACAUCAAUGGAGGCCCUGUCAGUGCCUGGACGUGCAGU
modifications: 2'-F on all C
Consider B30, for which, in data set [3], the binding result is on record as “binds”.

B31: R8c6_1-21-S6 (ssRNA)
RNA: GGGACAGUAAGACACGUAGCACCAGUGUGCCUGGACGUGCAGU
B31: in data set [2], the binding result is reported as “binds”.

B32: R8c6_1-25-S6A2 (ssRNA)
RNA: GGGUAAGACACGUAGCACCGUGUGCCGGACGUGCAGU
For the molecule B32, the binding result in data set [1] was “binds”.

B33: 2'F-R8c6_1-25-S6A2 (ssRNA)
RNA: GGGUAAGACACGUAGCACCGUGUGCCGGACGUGCAGU
modifications: 2'-F on all C and U
With B33, the binding result in data set [2] is “binds”.

B34: R8c6_1-24-S8 (ssRNA)
RNA: GGGGUAAGACACGUAGCACCAGUGCCUGGACGUGCAGU
On to B34, for which the binding result in data set [2] is given as “binds”.

B35: 2'F-R8c6_1-24-S8 (ssRNA)
RNA: GGGGUAAGACACGUAGCACCAGUGCCUGGACGUGCAGU
modifications: 2'-F on all C and U
As to B35, the binding result in data set [2] is recorded as “binds”.

B36: R8c6_1-27-S6 (ssRNA)
RNA: GGGAGACACGUAGCACCAGUGUGCCUGGACGUGCAGU
Turning to B36, the binding result in data set [1] is recorded as “binds”.

B37: 2'F-R8c6_1-27-S6 (ssRNA)
RNA: GGGAGACACGUAGCACCAGUGUGCCUGGACGUGCAGU
modifications: 2'-F on all C and U
For the molecule B37, in data set [2], the binding result is recorded as “binds”.
